For two molecules, Kd results are on record in patent US20200199647A1 (published 2020).

What is called Kd is a measure of binding affinity in units of concentration.

Test [1] concerns the target T1, PP1c (human PP1cα amino acids 7-330, N-terminal Thio6/His6 tag) (human, UniProt P62136 7-330). The test is described as follows: thermophoresis.
In test [2] the target is T1, PP1c (human PP1cα amino acids 7-330, …). Put plainly: thermophoresis. This is another data set of the same source.

Where two headings read alike, the source gives them in different places.

T1 sequence (P62136 other isoform, or with tags, fused parts or gaps): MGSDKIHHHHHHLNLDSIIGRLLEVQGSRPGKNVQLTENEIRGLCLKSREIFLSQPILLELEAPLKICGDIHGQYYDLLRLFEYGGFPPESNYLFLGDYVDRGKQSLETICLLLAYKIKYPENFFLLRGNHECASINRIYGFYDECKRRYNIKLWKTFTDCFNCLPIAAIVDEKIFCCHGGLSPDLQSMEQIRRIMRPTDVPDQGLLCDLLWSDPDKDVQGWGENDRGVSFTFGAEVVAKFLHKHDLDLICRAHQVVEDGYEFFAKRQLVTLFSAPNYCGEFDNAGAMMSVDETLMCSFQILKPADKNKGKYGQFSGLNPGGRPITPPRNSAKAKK

B1: R15B^C (human PPP1R15B amino acids 636-698, N-terminal MBP-tag, C-terminal His6-tag) (other)
chain: VKRKKVTFLEEVTEYYISGDEDRKGPWEEFARDGCRFQKRIQETEDAIGYCLTFEHRERMFNRHHHHHH
In test [1], B1 yielded a Kd of 960 nM.

B2: R15B (human PPP1R15B amino acids 340-698, N-terminal MBP-tag, C-terminal His6-tag) (other)
chain: RDNPTQFVPAAGDIPGNTQESTEEKIELLTTEVPLALEEESPSEGCPSSEIPMEKEPGEGRISVVDYSYLEGDLPISARPACSNKLIDYILGGASSDLETSSDPEGEDWDEEAEDDGFDSDSSLSDSDLEQDPEGLHLWNSFCSVDPYNPQNFTATIQTAARIVPEEPSDSEKDLSGKSDLENSSQSGSLPETPEHSSGEEDDWESSADEAESLKLWNSFCNSDDPYNPLNFKAPFQTSGENEKGCRDSKTPSESIVAISECHTLLSCKVQLLGSQESECPDSVQRDVLSGGRHTHVKRKKVTFLEEVTEYYISGDEDRKGPWEEFARDGCRFQKRIQETEDAIGYCLTFEHRERMFNRHHHHHH
B2 gave a Kd in test [2] of 900 nM. In other words, the sub-micromolar range.
